Source: patent US20200325237A1 (AVIDITY BIOSCIENCES, published 2020)
Where a chain is given by its changes, count along the chain named. Read-outs that look alike come from different tables or passages of the source. One block for each binder: values may come before it.

What was measured:
[1] = target: T1, recombinant cyno transferrin receptor protein (Sino Biological 90253-C07H) (cyno, UniProt H9EXL1 89-760 (rhesus entry)); assay: ELISA on plate-coated recombinant cyno TfR1 (CD71); fit: specific binding with Hill slope
T1 construct: Bought protein coated on ELISA plates; also called recombinant cyno TfR1; cynoTfR1
Description: (§1) 100 μL of Superblock (ThermoFisher PI-37535) was added to each well and incubated for 1 hour at room temperature. The wash step was repeated before the addition of the samples. Samples were added at concentrations up to 10 nM, 50 μL/well. Plates were incubated for another hour at room temp and wash step repeated. Secondary antibody (Peroxidase AffiniPure Goat Anti-Human IgG, Fcγ Fragment Specific, Jackson Immunoresearch, 109-035-098) was diluted 1:5000 in Superblock and 50 μL/well added. Plates were incubated for 1 hour at room temperature and washed one more time. Binding was measured by the addition of 50 μL of 1-Step™ Ultra TMB-ELISA (ThermoFisher, 34028), incubated for 5 minutes, and the reaction was stopped with the addition of 25 μL of Stop Solution 2N sulfuric Acid (R&D Systems DY994). Absorbance was measured at 450 nm, with reference wavelength 570 nm subtracted. Binding constants were determined using GraphPad Prism Specific Binding with Hill Slope.
(§2) Half-well high-binding 96-well plates (Costar #3690) were coated with recombinant human transferrin receptor protein (Sino Biological 11020-H07H) or recombinant cyno transferrin receptor protein (Sino Biological 90253-C07H) at 1 ng/μL in PBS (Gibco 14190) and incubated overnight at 4° C. […] Absorbance was measured at 450 nm, with reference wavelength 570 nm subtracted. […]

[2] = target: T2, recombinant human transferrin receptor protein (Sino Biological 11020-H07H) (human, UniProt P02786 89-760); assay: ELISA on plate-coated recombinant human TfR1; fit: specific binding with Hill slope
T2 construct: Bought protein coated on ELISA plates; also called recombinant human TfR1; human TfR1
Description: as §1, §2

[3] = target: T1, recombinant cyno transferrin receptor …; assay: ELISA on plate-coated recombinant cyno TfR1 (CD71); fit: specific binding with Hill slope; remark: listed apart in the source
Description: as §1, with “Half-well high-binding 96-well plates (Costar #3690) were coated with recombinant human transferrin receptor protein (Sino Biological 11020-H07H) or recombinant cyno transferrin receptor protein (Sino Biological 90253-C07H) at 1 ng/μL in PBS (Gibco 14190) and incubated overnight at 4° C. Plates were washed four times with 100 μL of Tris buffered saline+Tween (20×TBST, Cell Signaling 9997S). 100” for “100”

[4] = target: T3, hTfR (human transferrin receptor, source and construct not stated) (human, UniProt P02786 89-760, limits assumed); assay: ELISA, biotinylated antibody on hTfR captured by plate-coated HFE (HFE+TfR); fit: specific binding with Hill slope
[5] = target: T3, hTfR (human transferrin receptor, …); assay: ELISA; ratio of the Kd on HFE-captured hTfR to the Kd on directly coated hTfR
[6] = target: T4, TfR2 (transferrin receptor 2) (UniProt Q9UP52 105-801, limits assumed); assay: A450 plate assay on TfR2 (method not described in the text)
T4 sequence (looked up): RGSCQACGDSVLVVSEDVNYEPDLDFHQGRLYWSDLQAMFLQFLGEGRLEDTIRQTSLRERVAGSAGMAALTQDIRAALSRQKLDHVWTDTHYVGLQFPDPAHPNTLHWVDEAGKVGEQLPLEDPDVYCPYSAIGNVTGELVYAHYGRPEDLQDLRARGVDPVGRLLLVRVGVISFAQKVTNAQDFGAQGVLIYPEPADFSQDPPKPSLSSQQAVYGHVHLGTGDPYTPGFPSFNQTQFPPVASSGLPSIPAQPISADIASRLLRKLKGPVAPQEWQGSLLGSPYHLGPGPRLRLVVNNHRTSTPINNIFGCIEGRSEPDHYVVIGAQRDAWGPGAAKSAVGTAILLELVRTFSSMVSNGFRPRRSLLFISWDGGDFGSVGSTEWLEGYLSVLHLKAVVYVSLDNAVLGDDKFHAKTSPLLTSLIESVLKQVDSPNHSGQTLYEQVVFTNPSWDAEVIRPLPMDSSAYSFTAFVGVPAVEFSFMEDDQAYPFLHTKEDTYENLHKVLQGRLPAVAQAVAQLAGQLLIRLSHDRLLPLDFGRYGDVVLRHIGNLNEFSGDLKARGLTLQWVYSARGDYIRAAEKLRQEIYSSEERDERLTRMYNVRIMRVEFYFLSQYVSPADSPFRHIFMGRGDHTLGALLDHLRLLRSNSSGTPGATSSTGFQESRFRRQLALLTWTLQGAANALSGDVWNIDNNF

[7] = target: T2, recombinant human transferrin receptor …; assay: ELISA on plate-coated recombinant human TfR1 (CD71); fit: specific binding with Hill slope (row labels blank in the lower block; row taken by the order Bmax, h, Kd)
Description: as §1, with “Half-well high-binding 96-well plates (Costar #3690) were coated with recombinant human transferrin receptor protein (Sino Biological 11020-H07H) or recombinant cyno transferrin receptor protein (Sino Biological 90253-C07H) at 1 ng/μL in PBS (Gibco 14190) and incubated overnight at 4° C. Plates were washed four times with 100 μL of Tris buffered saline+Tween (20×TBST, Cell Signaling 9997S). 100” for “100”

[8] = target: T3, hTfR (human transferrin receptor, …); assay: ELISA, biotinylated antibody on hTfR captured by plate-coated human holo-transferrin (Tf+TfR); fit: specific binding with Hill slope
Description: (§3) Antibodies were biotinylated using 50 fold molar excess of EZ-Link No weigh NHS-Biotin (Thermo Scientific A39256) following manufacturer's instructions. Half-well high-bind plates (Costar #3690) were coated with 500 ng/mL purified human holo-transferrin (R&D Systems 2914-HT) in PBS at 4° C. overnight. For comparison, plates were coated directly with hTfR. Plates were washed four times with 100 μL of Tris buffered saline+Tween (20×TBST, Cell Signaling 9997S). 100 μL of Superblock (ThermoFisher PI-37535) was added to each well and incubated for 1 hour at room temperature. The wash step was repeated before the addition of the hTfR (200 ng/mL in 25 μl) to the transferrin plates, or Superblock to the hTfR plates, and incubated for 30 minutes. Biotinylated antibodies were diluted to 20 nM for the high concentration and added to the plates with 3-fold serial dilution. 25 μl/well was added to the 25 μl already in the plate. Plates were incubated for 1 hour, and wash step was repeated. Streptavidin-HRP (R&D Systems DY998) was added following recommended dilution on the package insert, and a final wash step was done. Binding was measured by the addition of 50 μL of 1-Step™ Ultra TMB-ELISA (ThermoFisher, 34028), incubated for 5 minutes, and the reaction was stopped with the addition of 25 μL of Stop Solution 2N sulfuric Acid (R&D Systems DY994). Absorbance was measured at 450 nm, with reference wavelength 570 nm subtracted. Binding constants were determined using GraphPad Prism Specific Binding with Hill Slope. Change in antibody binding constants in the presence versus absense of transferrin is considered relative to the commercially available antibody which is known to have an overlapping epitope with transferrin (AF2474, R&D Systems).

[9] = target: T3, hTfR (human transferrin receptor, …); assay: SPR (BioRad ProteOn XPR36), mAb captured on Protein A, hTfR as analyte, 25 C
Description: The binding kinetics of nine exemplary humanized anti-TfR antibodies and the parent chimeric antibody were characterized. Studies were run on a BioRad ProteOn XPR36 optical biosensor using a GLM sensor chip coated with Protein A for mAb capture. Running buffer included 10 mM EPES, 150 mM NaCl, pH 7.4 with 0.05 tween-20 with 0.2 mg/ml BSA. Data were collected at 25 degrees C. All mAbs were diluted into running buffer to 2 ug/ml based on the stock concentration provided. Each was then captured for 40 seconds over a Protein A surface.
hTfR (100 ug) was dissolved into […] of water to yield a 4.3 uM stock concentration. hTfR was dilted to 43 nM as the highest concentration and tested in a 3 fold dilution series. hTfR was injected at 200 ul/min for 2 minutes followed by a one-hour dissociation phase.

[10] = target: T3, hTfR (human transferrin receptor, …); assay: ELISA; ratio of the Kd on transferrin-captured hTfR to the Kd on directly coated hTfR
Description: as §3

T1 sequence (chain, as listed by the source C07H C07H): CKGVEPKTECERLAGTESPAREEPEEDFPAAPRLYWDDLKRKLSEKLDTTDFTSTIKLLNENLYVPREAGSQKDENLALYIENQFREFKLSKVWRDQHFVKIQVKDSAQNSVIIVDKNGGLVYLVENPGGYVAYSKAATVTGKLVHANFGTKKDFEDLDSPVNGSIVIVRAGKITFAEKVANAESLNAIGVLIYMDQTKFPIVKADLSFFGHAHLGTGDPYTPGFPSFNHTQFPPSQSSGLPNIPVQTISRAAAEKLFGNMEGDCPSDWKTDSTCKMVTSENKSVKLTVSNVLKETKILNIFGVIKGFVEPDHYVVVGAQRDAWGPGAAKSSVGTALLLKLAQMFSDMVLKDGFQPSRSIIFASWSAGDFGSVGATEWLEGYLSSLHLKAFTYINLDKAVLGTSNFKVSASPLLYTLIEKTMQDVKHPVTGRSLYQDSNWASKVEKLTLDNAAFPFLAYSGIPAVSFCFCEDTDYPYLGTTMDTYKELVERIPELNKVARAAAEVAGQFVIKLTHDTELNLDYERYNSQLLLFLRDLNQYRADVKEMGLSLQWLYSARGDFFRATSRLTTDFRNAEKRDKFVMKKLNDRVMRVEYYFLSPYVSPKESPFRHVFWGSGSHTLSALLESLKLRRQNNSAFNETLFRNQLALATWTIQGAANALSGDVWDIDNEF
T2 sequence (P02786 89-760 limits assumed): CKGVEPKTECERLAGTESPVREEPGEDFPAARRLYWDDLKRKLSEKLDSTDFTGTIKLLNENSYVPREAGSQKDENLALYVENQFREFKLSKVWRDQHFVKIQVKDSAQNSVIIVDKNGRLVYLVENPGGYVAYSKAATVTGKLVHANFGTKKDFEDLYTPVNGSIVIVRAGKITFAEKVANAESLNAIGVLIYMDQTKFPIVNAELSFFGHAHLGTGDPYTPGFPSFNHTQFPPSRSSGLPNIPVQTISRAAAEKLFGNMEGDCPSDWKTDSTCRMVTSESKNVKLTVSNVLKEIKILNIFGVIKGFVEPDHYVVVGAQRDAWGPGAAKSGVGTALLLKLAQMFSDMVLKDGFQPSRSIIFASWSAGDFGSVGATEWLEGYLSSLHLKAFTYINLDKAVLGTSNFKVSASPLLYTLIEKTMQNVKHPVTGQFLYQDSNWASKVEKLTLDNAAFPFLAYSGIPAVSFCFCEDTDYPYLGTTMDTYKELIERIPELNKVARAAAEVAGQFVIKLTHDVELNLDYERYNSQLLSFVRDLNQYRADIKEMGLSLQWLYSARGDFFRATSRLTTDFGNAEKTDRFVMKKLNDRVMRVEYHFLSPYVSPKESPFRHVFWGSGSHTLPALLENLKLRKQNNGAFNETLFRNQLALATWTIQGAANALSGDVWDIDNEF
T3 sequence (P02786 89-760 limits assumed): as above

B2: 13E4-Variant 9iii (antibody, human IgG1, kappa, L234A L235A)
heavy: QVQLVQSGAEVKKPGASVKVSCKASGYTFTNYWMHWVRQAPGQGLEWMGEINPINGRSNYAQKFQGRVTLTVDTSISTAYMELSRLRSDDTAVYYCARGTRAMHYWGQGTLVTVSSASTKGPSVFPLAPSSKSTSGGTAALGCLVKDYFPEPVTVSWNSGALTSGVHTFPAVLQSSGLYSLSSVVTVPSSSLGTQTYICNVNHKPSNTKVDKRVEPKSCDKTHTCPPCPAPEAAGGPSVFLFPPKPKDTLMISRTPEVTCVVVDVSHEDPEVKFNWYVDGVEVHNAKTKPREEQYNSTYRVVSVLTVLHQDWLNGKEYKCKVSNKARPAPIEKTISKAKGQPREPQVYTLPPSREEMTKNQVSLTCLVKGFYPSDIAVEWESNGQPENNYKTTPPVLDSDGSFFLYSKLTVDKSRWQQGNVFSCSVMHEALHNHYTQKSLSLSPG
light: DIQMTQSPSSLSASVGDRVTITCRTSENIYNNLAWYQQKPGKAPKLLIYAATNLAEGVPSRFSGSGSGTDYTLTISSLQPEDFATYYCQHFWGTPLTFGGGTKVEIKRTVAAPSVFIFPPSDEQLKSGTASVVCLLNNFYPREAKVQWKVDNALQSGNSQESVTEQDSKDSTYSLSSTLTLSKADYEKHKVYACEVTHQGLSSPVTKSFNRGEC
notes: Humanized hIgG1 with Fc mutations; also called hIgG1 TfR-Var9iii
- Bmax [3]: 94 % max binding
- Kd [3]: 0.0137 nM
- h [3]: 1.74
- Bmax [4]: 3.14 A450
- Kd [4]: 0.248 nM
- h [4]: 1.38
- Kd(HFE+TfR)/Kd(TfR) [5]: 11.4
- binding result [6]: no binding (tested: 1000 nM)
- Bmax [7]: 93.8 % max binding
- Kd [7]: 0.012 nM
- h [7]: 1.56
- Bmax [8]: 3.53 A450
- Kd [8]: 0.0546 nM
- h [8]: 1.49
- Kd [9]: 0.00527 nM
- koff [9]: 4.17e-06 s⁻¹
- kon [9]: 791000 M⁻¹ s⁻¹
- Kd(Tf+TfR)/Kd(TfR) [10]: 2.5

B4: 13E4-Variant 15i (antibody, human IgG1, kappa, L234A L235A)
heavy: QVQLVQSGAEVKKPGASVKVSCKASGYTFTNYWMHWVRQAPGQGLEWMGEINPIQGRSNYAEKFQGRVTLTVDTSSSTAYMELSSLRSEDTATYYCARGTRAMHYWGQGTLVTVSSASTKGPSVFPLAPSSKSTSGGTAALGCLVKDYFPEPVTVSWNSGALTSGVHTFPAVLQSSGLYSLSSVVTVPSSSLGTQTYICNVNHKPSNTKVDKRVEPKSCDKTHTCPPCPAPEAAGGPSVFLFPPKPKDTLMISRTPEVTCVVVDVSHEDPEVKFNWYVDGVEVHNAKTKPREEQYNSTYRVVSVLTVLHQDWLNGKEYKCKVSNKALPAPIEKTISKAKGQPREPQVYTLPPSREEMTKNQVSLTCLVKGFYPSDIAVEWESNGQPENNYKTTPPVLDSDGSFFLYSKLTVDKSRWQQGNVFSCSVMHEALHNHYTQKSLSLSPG
light: B2 light with N31S, A51G, E56D, T85N
notes: Humanized hIgG1 with Fc mutations; also called hIgG1 TfR-Var15i
- Bmax [3]: 94.2 % max binding
- Kd [3]: 0.0125 nM
- h [3]: 1.55
- Bmax [4]: 2.7 A450
- Kd [4]: 0.182 nM
- h [4]: 1.65
- Kd(HFE+TfR)/Kd(TfR) [5]: 8.5
- binding result [6]: no binding (tested: 1000 nM)
- Bmax [7]: 95.3 % max binding
- Kd [7]: 0.00713 nM
- h [7]: 1.29
- Bmax [8]: 3.47 A450
- Kd [8]: 0.0619 nM
- h [8]: 1.56
- Kd [9]: 0.00851 nM
- koff [9]: 6.13e-06 s⁻¹
- kon [9]: 720000 M⁻¹ s⁻¹
- Kd(Tf+TfR)/Kd(TfR) [10]: 2.9

The remaining lines, values ahead:

- Kd [1]: 0.00499 nM
- Kd [2]: 0.00318 nM
B1: hTfR1.IgG2 mAb-SSB siRNA conjugate (DAR1) (antibody, DAR 1, V domains shown)
VH: QVQLQQPGAELVKPGASVKLSCKASGYTFTNYWMHWVKQRPGQGLEWIGEINPINGRSNYGERFKTKATLTVDKSSSTAYMQLSSLTSEDSAVYYCARGTRAMHYWGQGTSVTVSS
VL: DIQMTQSPASLSVSVGETVTITCRTSENIYNNLAWYQQKQGKSPQLLVYAATNLADGVPSRFSGSGSGTQYSLKINSLQSEDFGNYYCQHFWGTPLTFGAGTKLELKR
modifications: SSB siRNA duplex joined through a bis-maleimide (BisMal) linker to TCEP-reduced cysteines, DAR1; chain and positions not stated; remaining free cysteines capped with N-ethylmaleimide
notes: also called TfR-SSB DAR 1; conjugated hTfRL.IgG2 mAb

- Bmax [3]: 94.4 % max binding
- Kd [3]: 0.018 nM
- h [3]: 1.53
- Bmax [4]: 2.79 A450
- Kd [4]: 0.346 nM
- h [4]: 1.28
- Kd(HFE+TfR)/Kd(TfR) [5]: 10.2
- binding result [6]: no binding (tested: 1000 nM)
- Bmax [7]: 93.7 % max binding
- Kd [7]: 0.00987 nM
- h [7]: 1.25
- Bmax [8]: 3.52 A450
- Kd [8]: 0.0849 nM
- h [8]: 1.46
- Kd [9]: 0.0131 nM
- koff [9]: 9.14e-06 s⁻¹
- kon [9]: 697000 M⁻¹ s⁻¹
- Kd(Tf+TfR)/Kd(TfR) [10]: 2.5
B3: 13E4-Variant 15ii (antibody, human IgG1, kappa, L234A L235A)
heavy: B2 heavy with N55Q, Q62E, I76S, R85S, D89E, V93T, K321G, R327L
light: B2 light with N31S, A51G, E56D, T85N
notes: Humanized hIgG1 with Fc mutations; also called hIgG1 TfR-Var15ii
